This is an account of results in CN110903395A (SICHUAN KELUN BOTAI BIOMEDICAL CO LTD, dated 2020).

This test concerns the target T1, Trop-2-mFc (human, UniProt P09758 27-274).
T1 construct: Made in-house by 四川科伦博泰; Coated at 1 μg/ml on the ELISA plate; also called 配体Trop-2-mFc
T1 sequence (looked up): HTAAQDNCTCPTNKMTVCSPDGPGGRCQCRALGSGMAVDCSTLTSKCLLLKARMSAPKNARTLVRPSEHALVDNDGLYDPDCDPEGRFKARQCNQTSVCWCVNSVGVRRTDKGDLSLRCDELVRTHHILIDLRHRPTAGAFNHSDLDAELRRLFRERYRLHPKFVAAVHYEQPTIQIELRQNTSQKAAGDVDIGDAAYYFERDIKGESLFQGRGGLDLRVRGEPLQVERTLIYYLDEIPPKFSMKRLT
Kind of test: ELISA, Trop-2-mFc coated at 1 μg/ml, detection with HRP-anti human IgG(H+L).

Broadly, the EC50 is the concentration at which the effect is half-maximal. The low end stands for an effect from little substance, the high end for a need for much substance.

B1: 疏水性改造TROP-2抗体M1 (antibody, human IgG1, kappa, V domains shown)
VH: QVQLQQSGSELKKPGASVKVSCKASGYTFTNYGMNWVKQAPGQGLKWMGWINTDSGEPTYTDDFKGRFAFSLDTSVSTAYLQISSLKADDTAVYFCARGGFGSSYWYFDVWGQGSLVTVSS
VL: DIQLTQSPSSLSASVGDRVSITCKASQDVSSAVAWYQQKPGKAPKLLIYSASYRYTGVPDRFSGSGSGTDFTLTISSLQPEDFAVYYCQQHYSTPLTFGAGTKVEIKR
notes: Humanized anti-Trop-2 antibody derived from Sacituzumab by hydrophilic CDR mutations; expressed in CHO-S cells, purified on protein A
B1 showed a concentration for a half-maximal effect (EC50) of 9.91 nM. In other words, the single-digit nanomolar range.

B2: Sacituzumab抗体 (antibody, V domains shown)
VH: QVQLQQSGSELKKPGASVKVSCKASGYTFTNYGMNWVKQAPGQGLKWMGWINTYTGEPTYTDDFKGRFAFSLDTSVSTAYLQISSLKADDTAVYFCARGGFGSSYWYFDVWGQGSLVTVSS
VL: DIQLTQSPSSLSASVGDRVSITCKASQDVSIAVAWYQQKPGKAPKLLIYSASYRYTGVPDRFSGSGSGTDFTLTISSLQPEDFAVYYCQQHYITPLTFGAGTKVEIKR
As for B2, a half-maximal response (EC50) required 13.1 nM.

B3: 疏水性改造TROP-2抗体M3 (antibody, human IgG1, kappa, V domains shown)
VH: QVQLQQSGSELKKPGASVKVSCKASGYTFTNYGMNWVKQAPGQGLKWMGWINTDSGEPTYTDDFKGRFAFSLDTSVSTAYLQISSLKADDTAVYFCARGGFGSSYWYFDVWGQGSLVTVSS
VL: DIQLTQSPSSLSASVGDRVSITCKASQDVSIAVAWYQQKPGKAPKLLIYSASYRYTGVPDRFSGSGSGTDFTLTISSLQPEDFAVYYCQQHYSTPLTFGAGTKVEIKR
notes: as for B1
With B3, the 50% effective concentration (EC50) worked out at 10.8 nM.

B4: 疏水性改造TROP-2抗体M2 (antibody, human IgG1, kappa, V domains shown)
VH: QVQLQQSGSELKKPGASVKVSCKASGYTFTNYGMNWVKQAPGQGLKWMGWINTDSGEPTYTDDFKGRFAFSLDTSVSTAYLQISSLKADDTAVYFCARGGFGSSYWYFDVWGQGSLVTVSS
VL: DIQLTQSPSSLSASVGDRVSITCKASQDVSSAVAWYQQKPGKAPKLLIYSASYRYTGVPDRFSGSGSGTDFTLTISSLQPEDFAVYYCQQHYITPLTFGAGTKVEIKR
notes: as for B1
The molecule B4 returned an EC50 of 13.9 nM.
